In patent US20250179200A1 (UNIVERSITY OF CHICAGO, published 2025):

Tests used:
[1] = molecular target: T1, Growth Hormone Receptor (GHR) immobilized on a high binding plate (UniProt P10912 19-264, limits assumed); test: competition ELISA: Fab titrated on plate-bound GHR preincubated with 200 nM GH (the legend of 6A names B2036), anti-human Fab-HRP
T1 sequence (looked up): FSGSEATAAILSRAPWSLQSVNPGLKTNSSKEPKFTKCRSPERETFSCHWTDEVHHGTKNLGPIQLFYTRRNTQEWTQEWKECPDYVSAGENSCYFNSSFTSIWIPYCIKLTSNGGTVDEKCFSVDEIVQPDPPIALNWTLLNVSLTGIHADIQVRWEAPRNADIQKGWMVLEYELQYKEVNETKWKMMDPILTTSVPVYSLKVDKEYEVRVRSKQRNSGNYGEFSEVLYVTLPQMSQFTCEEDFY
Protocol: 200 nM of GHR was immobilized on a 96-well high binding plate (Geiner Bio) and blocked with 5% BSA overnight. […] The Fab binding to GHR was detected using HRP-conjugated anti-human (Fab)2 antibody (Jackson ImmunoResearch, 1:5000 dilution in PBST), and the signal was developed with TMB substrate.

[2] = molecular target: T2, Rabbit GHR_Fc with 10x His-tag (rabbit, UniProt P19941 19-264, limits assumed); test: SPR, GHR_Fc-10xHis on Ni-NTA chip, Fab in 2-fold dilutions from 50 nM, 1:1 fit
T2 construct: not shown: Fc domain and 10x His-tag
T2 sequence (looked up): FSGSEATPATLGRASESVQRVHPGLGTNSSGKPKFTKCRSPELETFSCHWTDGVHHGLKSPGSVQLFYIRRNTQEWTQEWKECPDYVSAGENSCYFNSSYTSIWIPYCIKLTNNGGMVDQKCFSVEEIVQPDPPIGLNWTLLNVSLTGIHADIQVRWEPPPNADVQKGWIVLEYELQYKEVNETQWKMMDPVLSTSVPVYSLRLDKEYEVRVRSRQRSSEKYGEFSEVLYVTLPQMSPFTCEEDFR
Protocol: (§1) Surface plasmon resonance (SPR) measurements were conducted in a MASS-1 (Bruker) instrument. The target GHR-Fc (50 nM) with a 10× His-tag was captured in a Ni-NTA sensor chip. […] Flow rate was 30 ul/min and temperature 20° C. Sensograms were corrected through double referencing and fitting was done with a 1:1 binding model using the Sierra Analyzer (Bruker). For epitope binning experiments, the first FAB was injected at saturating concentrations (200 nM), followed by injection a second FAB in equal molar mixture with the first FAB, and the response unit (RU) was recorded.
(§2) Target GHR_Fc (from different species) were immobilized via a 10× His-tag to a Ni-NTA sensor chip. […] Sensograms were corrected through double referencing and 1:1 binding model fit was done using Sierra Analyzer (Bruker). To reveal different epitopes on GHR, the epitope binning experiment was performed.

[3] = molecular target: T3, Human GHR-Fc-10x His (extracellular region of human growth hormone receptor fused to human Fc) (human, UniProt P10912 50-256); test: as above
T3 construct: Captured by its 10x His-tag on a Ni-NTA sensor chip for SPR; not shown: human Fc domain of vector pAB1200 with its linker; 10x His-tag replacing the AviTag
T3 sequence (looked up): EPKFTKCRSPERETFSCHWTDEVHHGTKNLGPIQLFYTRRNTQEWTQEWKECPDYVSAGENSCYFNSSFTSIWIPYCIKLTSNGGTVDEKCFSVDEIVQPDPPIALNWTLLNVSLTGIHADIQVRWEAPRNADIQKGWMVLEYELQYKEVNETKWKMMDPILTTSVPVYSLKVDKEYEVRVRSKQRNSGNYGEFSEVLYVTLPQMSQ
Protocol: as §1, §2

[4] = molecular target: T4, Cyno GHR_Fc with 10x His-tag (Cyno, UniProt A0A2K5WH01 19-262); test: as above
T4 construct: not shown: Fc domain and 10x His-tag
T4 sequence: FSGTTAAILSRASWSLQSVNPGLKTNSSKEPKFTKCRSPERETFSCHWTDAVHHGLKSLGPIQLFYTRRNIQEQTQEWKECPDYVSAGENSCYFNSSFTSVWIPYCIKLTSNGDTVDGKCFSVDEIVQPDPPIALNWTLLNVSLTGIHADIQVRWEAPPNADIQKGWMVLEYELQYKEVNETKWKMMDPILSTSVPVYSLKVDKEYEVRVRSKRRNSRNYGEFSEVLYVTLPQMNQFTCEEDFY
Protocol: as §1, §2

[5] = molecular target: T5, Pig GHR_Fc with 10x His-tag (pig, UniProt P19756 19-264, limits assumed); test: as above
T5 construct: not shown: Fc domain and 10x His-tag
T5 sequence (looked up): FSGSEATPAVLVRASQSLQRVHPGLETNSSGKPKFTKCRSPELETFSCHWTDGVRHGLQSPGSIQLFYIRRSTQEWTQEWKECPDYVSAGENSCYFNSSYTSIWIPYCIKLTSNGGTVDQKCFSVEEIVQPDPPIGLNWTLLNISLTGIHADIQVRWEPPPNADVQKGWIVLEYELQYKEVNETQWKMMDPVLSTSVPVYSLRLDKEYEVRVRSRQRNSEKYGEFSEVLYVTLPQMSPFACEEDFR
Protocol: as §1, §2

[6] = molecular target: T6, Rat GHR_Fc with 10x His-tag (rat, UniProt P16310 19-265, limits assumed); test: as above
T6 construct: not shown: Fc domain and 10x His-tag
T6 sequence (looked up): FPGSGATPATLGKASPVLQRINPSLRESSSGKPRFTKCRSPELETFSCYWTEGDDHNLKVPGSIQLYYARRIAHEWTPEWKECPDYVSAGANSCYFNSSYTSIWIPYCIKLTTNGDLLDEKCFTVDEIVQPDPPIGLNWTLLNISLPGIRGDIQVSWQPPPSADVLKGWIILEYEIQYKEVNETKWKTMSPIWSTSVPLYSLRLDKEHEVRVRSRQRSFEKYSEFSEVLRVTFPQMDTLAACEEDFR
Protocol: as §1, §2

[7] = molecular target: T7, Murine GHR_Fc with 10x His-tag (murine, UniProt P16882 25-273, limits assumed); test: as above
T7 construct: not shown: Fc domain and 10x His-tag
T7 sequence (looked up): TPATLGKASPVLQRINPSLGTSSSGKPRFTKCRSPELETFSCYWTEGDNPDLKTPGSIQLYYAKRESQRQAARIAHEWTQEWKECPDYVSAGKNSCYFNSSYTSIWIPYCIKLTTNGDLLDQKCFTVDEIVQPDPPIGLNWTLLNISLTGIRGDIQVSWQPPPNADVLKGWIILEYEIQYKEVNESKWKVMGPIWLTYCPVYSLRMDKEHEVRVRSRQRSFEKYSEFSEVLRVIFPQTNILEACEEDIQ
Protocol: as §1, §2

B1: GHR_TS40 Fab (Fab, V domains shown)
VH: EVQLVESGGGLVQPGGSLRLSCAASGFNVSYYYIHWVRQAPGKGLEWVASIYPSSGYTSYADSVKGRFTISADTSKNTAYLQMNSLRAEDTAVYYCARYYWPASYWSGYSALDYWGQGTLVTVSS
VL: DIQMTQSPSSLSASVGDRVTITCRASQSVSSAVAWYQQKPGKAPKLLIYSASSLYSGVPSRFSGSRSGTDFTLTISSLQPEDFATYYCQQYPWGLITFGQGTKVEIKR
Question: For B1, which EC50 [1] is on record?
Answer: Its EC50 is 132 nM.

B2: GHR_TS23 Fab (Fab, V domains shown)
VH: EVQLVESGGGLVQPGGSLRLSCAASGFNFYYSSIHWVRQAPGKGLEWVASIYSYSGSTSYADSVKGRFTISADTSKNTAYLQMNSLRAEDTAVYYCARQYWYYGGYFYYGIDYWGQGTLVTVSS
VL: DIQMTQSPSSLSASVGDRVTITCRASQSVSSAVAWYQQKPGKAPKLLIYSASSLYSGVPSRFSGSRSGTDFTLTISSLQPEDFATYYCQQYWSTLITFGQGTKVEIKR
notes: Fab from the cross-species phage display selection
Question: With B2 as the binder, how does the Kd [2] read?
Answer: Its Kd is 2.5 nM.

Question: And the koff [2]?
Answer: The koff was 0.0014 s⁻¹.

Question: And the kon [2]?
Answer: Its kon is 560000 M⁻¹ s⁻¹.

Question: And the Kd [3]?
Answer: Its Kd is 0.2 nM.

Question: And the koff [3]?
Answer: The koff was 0.00017 s⁻¹.

Question: What about the kon [3] of the same binder?
Answer: Its kon is 830000 M⁻¹ s⁻¹.

Question: And the Kd [4]?
Answer: Its Kd is 1.3 nM.

Question: What about the koff [4] of the same binder?
Answer: The koff was 0.00038 s⁻¹.

Question: What about the kon [4] of the same binder?
Answer: Its kon is 300000 M⁻¹ s⁻¹.

Question: And the Kd [5]?
Answer: The Kd was 1.8 nM.

Question: What about the koff [5] of the same binder?
Answer: The koff was 0.0012 s⁻¹.

Question: What about the kon [5] of the same binder?
Answer: Its kon is 670000 M⁻¹ s⁻¹.

Question: What about the Kd [6] of the same binder?
Answer: The Kd was 8.2 nM.

Question: What about the koff [6] of the same binder?
Answer: Its koff is 0.0031 s⁻¹.

Question: What about the kon [6] of the same binder?
Answer: The kon was 370000 M⁻¹ s⁻¹.

Question: And the Kd [7]?
Answer: Its Kd is 7.8 nM.

Question: What about the koff [7] of the same binder?
Answer: Its koff is 0.0051 s⁻¹.

Question: What about the kon [7] of the same binder?
Answer: Its kon is 660000 M⁻¹ s⁻¹.
